Patent US20020168363A1, “Integrin/adhesion antagonists” (Amgen Inc., priority 2000, published 2002)

Molecular target: GPIIb/IIIa (UniProt P08514)
Experiment: inhibition of hu Fibrinogen-Ru binding

How did the IC50 turn out when Fibrinogen was run?
Its IC50 is 10.5 nM.

And the Ki?
Its Ki is 5.26 nM.
